The target in this assay is USP7 TRAF domain (residues 2-207), biotinylated (UniProt Q93009). The assay can be described thus: fluorescence polarisation. To be noted: read at the highest USP7-TRAF concentration, about 190 µM; parent: est. 100; read off a plot. In general terms: Polarisation of emitted light reports the rotation of a fluorescent probe.
Chain of USP7 TRAF domain (residues 2-207), biotinylated (Q93009 2-207): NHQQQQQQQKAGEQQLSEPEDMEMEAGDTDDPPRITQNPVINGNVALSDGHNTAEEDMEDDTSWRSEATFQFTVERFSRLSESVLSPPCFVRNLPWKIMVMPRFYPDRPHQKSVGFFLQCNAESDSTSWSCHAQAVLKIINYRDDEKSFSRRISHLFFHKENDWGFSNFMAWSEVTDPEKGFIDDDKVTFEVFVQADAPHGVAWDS
Consider “FITC-labelled FAN1-derived 8mer peptide, wild-type (181-PQSS-184 region) P181A”, for which the response (% (normalized FP)) is 100.
As to “FITC-labelled FAN1-derived 8mer peptide, wild-type (181-PQSS-184 region) Q182A”, the response (% (normalized FP)) stood at 99.
For “FITC-labelled FAN1-derived 8mer peptide, wild-type (181-PQSS-184 region) S184A”, the response (% (normalized FP)) turned out to be 30.

(Values after publication PMC13086964, “USP7 deubiquitinase stabilizes FAN1 to support DNA crosslink repair and suppress CAG repeat expansion” (Nature Communications, 2026).)
